Assay results: patent US20190160076A1 (University of California, published 2019)

Target: T1, V5-tagged human lipoprotein lipase (LPL) (human, UniProt P06858 28-475)
T1 construct: also called V5-tagged human LPL; V5-LPL; not shown: V5 tag
T1 sequence: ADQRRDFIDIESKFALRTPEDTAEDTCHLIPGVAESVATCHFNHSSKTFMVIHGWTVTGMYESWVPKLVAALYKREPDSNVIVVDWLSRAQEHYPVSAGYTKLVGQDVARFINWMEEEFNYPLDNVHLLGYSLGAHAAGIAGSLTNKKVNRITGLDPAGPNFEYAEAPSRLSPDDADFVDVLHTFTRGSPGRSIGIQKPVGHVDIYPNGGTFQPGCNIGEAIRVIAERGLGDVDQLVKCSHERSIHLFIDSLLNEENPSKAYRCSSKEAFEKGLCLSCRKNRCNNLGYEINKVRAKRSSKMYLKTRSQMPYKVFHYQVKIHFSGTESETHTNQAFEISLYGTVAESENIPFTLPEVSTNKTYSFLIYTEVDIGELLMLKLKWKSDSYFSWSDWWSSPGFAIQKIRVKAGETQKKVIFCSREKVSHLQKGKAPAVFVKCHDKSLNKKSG
Assay: cell-based LPL binding, western blot of CHO cell extracts (FIG. 4A)
Procedure: FIG. 4A-B. GPIHBP1 Autoantibodies Block the Binding of LPL to GPIHBP1. […] The LPL used in these experiments was V5-tagged. Western blots were performed with a goat antibody against the S-protein tag (Abcam, 5 μg/ml), followed by an IRDye 680-donkey anti-goat IgG (LI_COR, 1:2000; GPIHBP1) and an IRDye 800-V5 antibody (1:500; LPL). Actin was used as a loading control, and was detected with a rabbit antibody against actin (Abcam, 5 μg/ml) followed by an IRDye 800-donkey anti-rabbit IgG (LI-COR, 1:2000; lower panel). […] In lane 5, pre-incubation of cells with plasma 38 (1:20) abolished LPL binding. […] In lane 2, a mutant GPIHBP1 (GPIHBP1-W109S), which lacks the ability to bind LPL, was included as a control. […] DNA was stained with DAPI (fourth column).
Expression vectors for S-protein-tagged wild-type (wt) GPIHBP1, GPIHBP1-G175R, and GPIHBP1-W109S (or the empty vector) were transfected into CHO pgsA-745 cells or human umbilical vein endothelial cells (HUVEC). After 1 day, the cells were washed three times in PBS and incubated for 1 h at 4° C. with V5-tagged human LPL (900 ng/well). Then the cells were washed six times in PBS, and cell lysates were collected in RIPA buffer (Sigma) containing a protease inhibitor cocktail (Roche). […]

B1: S-protein-tagged wild-type human GPIHBP1 (GPIHBP1-wt) expressed on transfected CHO pgsA-745 cells (receptor)
chain: QTQQEEEEEDEDHGPDDYDEEDEDEVEEEETNRLPGGRSRVLLRCYTCKSLPRDERCNLTQNCSHGQTCTTLIAHGNTESGLLTTHSTWCTDSCQPITKTVEGTQVTMTCCQSSLCNVPPWQSSRVQDPTG
notes: also called GPIHBP1-transfected cells; GPIHBP1-expressing cells; not shown: S-protein tag
binding result: binds
